Several values for one entry are separate records, joined by “and”; a condition that tells them apart may be missing. Identical values can stand only once.
How the values were obtained:
[1] = biological target: 全长SARS-CoV-2 S蛋白 (GenBank ID: QHD43416.1)，展示于HIV假病毒 (SARS-CoV-2, UniProt P0DTC2 14-1273); test: cell-based or functional assay
SARS-CoV-2真病毒的S蛋白 = SARS-CoV-2真病毒的S蛋白 (SARS-CoV-2, UniProt P0DTC2 14-1273); test: cell-based or functional assay

B1: 单克隆抗体4B7 (抗SARS-CoV-2全人源单克隆抗体) (antibody, V domains shown)
VH: EVQLVESGGGLVQPGGSLRLSCAASGFPFSSYAMSWVRQAPGKGLEWVSAITGSGGSTYYADSVKGRFTISRDNSKNTLYLHMNSLRAEDTAVYYCAKDDYGDYVLGAFDIWGQGTTVTVSS
VL: QSALTQPASVSGSPGQSITISCTGTSSDVGTYKFVSWYQQHPGKAPKLMIYEGSKRPSGVSNRFSGSKSGNTASLTISGLQAEDEADYYCCSYAGSSTLVFGGGTKLTVL
Q: How did the “假病毒模型上EC50 (luciferase, ACE2-293T细胞)” value [1] turn out when B1 was run?
A: 0.052 ug/ml and 0.35 nM

Q: And the “病毒感染的细胞模型上EC50 (Vero E6细胞, 结晶紫染色细胞活率)” value (SARS-CoV-2真病毒的S蛋白)?
A: 0.38 ug/ml and 2.5 nM

— patent CN111732655A (INST MILITARY MEDICINE ACADEMY MILITARY SCIENCES PLA, dated 2020)
